B1: OR4K15 (parent)
chain: GUUAACGGUCAUAGGCCAUGGAAACUAGGAGCACCAUUUCGCUGCCAGUGAAGAAAUGAACAAAGAAAAUCUGGGCCAGGCAGGCAUCAAAAGAAAUAGUCUUGCGCUCAACCAGAAAGUCUGUAAUCAUUUUAAGGGUA

Variants of: B1
Experiment: self-cleavage, relative activity (ratio to wild type); higher = more cleavage; in vitro, sequencing; the parent is a self-cleaving ribozyme

Variant | self-cleavage
GUUAACGGUCAUAGGCCAUGGAAACUAGGAGCACCAUUUCGCUGCCAGUGAAGAAAUGAACAAAGAAAAUCUGGGCCAGGCAGGCAACAAAAGAAAUAGUCUUGCGCUCAACCAGAGAGUCUGUAAUCAUUUUAAGGGUA [U87A A117G] | 1.12
GUUAACGGUCAUAGGCCAUGGAAACUAGGAGCACCAUUUCGCUGCCAGUGAAGAAAUGAACAAAGAAAAUCUGGGCCAGGCAGGCACCAAAAGAAAUAGUCUUGCGCUCAACCGGAAAGUCUGUAAUCAUUUUAAGGGUA [U87C A114G] | 0.43
GUUAACGGUCAUAGGCCAUGGAAACUAGGAGCACCAUUUCGCUGCCAGUGAAGAAAUGAACAAAGAAAAUCUGGGCCAGGCAGGCACCAAAAGAAAUAGUCUUGCGCUCAACCAGAAAGUCUGUAAUCAUUUUAAGGGUA [U87C] | 0.94
GUUAACGGUCAUAGGCCAUGGAAACUAGGAGCACCAUUUCGCUGCCAGUGAAGAAAUGAACAAAGAAAAUCUGGGCCAGGCAGGCAACAAAAGAAAUAGUCUUGCGCUCAACCAGAAAGUCUGUAAUCAUUUCAAGGGUA [U87A U133C] | 1.05
GUUAACGGUCAUAGGCCAUGGAAACUAGGAGCACCAUUUCGCUGCCAGUGAAGAAAUGAACAAAGAAAAUCUGGGCCAGGCAGGCAACAAAAGAAAUAGUCUUGCGCUCAACCAGAAAGUCUGUAAUCAUUUGAAGGGUA [U87A U133G] | 1.25
GUUAACGGUCAUAGGCCAUGGAAACUAGGAGCACCAUUUCGCUGCCAGUGAAGAAAUGAACAAAGAAAAUCUGGGCCAGGCAGGCACCAAAAGAAAUAGUCUUGCGCUCAACCAGUAAGUCUGUAAUCAUUUUAAGGGUA [U87C A116U] | 0.17
GUUAACGGUCAUAGGCCAUGGAAACUAGGAGCACCAUUUCGCUGCCAGUGAAGAAAUGAACAAAGAAAAUCUGGGCCAGGCAGGCAACAAAAGAAAUAGUCUUGCGCUCAACCAGAAAGCCUGUAAUCAUUUUAAGGGUA [U87A U120C] | 1.28
GUUAACGGUCAUAGGCCAUGGAAACUAGGAGCACCAUUUCGCUGCCAGUGAAGAAAUGAACAAAGAAAAUCUGGGCCAGGCAGGCACCAAAAGAAAUAGUCUUGCGCUCAACCAGAAAGUCUCUAAUCAUUUUAAGGGUA [U87C G123C] | 1.6
GUUAACGGUCAUAGGCCAUGGAAACUAGGAGCACCAUUUCGCUGCCAGUGAAGAAAUGAACAAAGAAAAUCUGGGCCAGGCAGGCACCAAAAGAAAUAGUCUUGCGCUCAACCAGAAAGUCUAUAAUCAUUUUAAGGGUA [U87C G123A] | 1.78
GUUAACGGUCAUAGGCCAUGGAAACUAGGAGCACCAUUUCGCUGCCAGUGAAGAAAUGAACAAAGAAAAUCUGGGCCAGGCAGGCACCGAAAGAAAUAGUCUUGCGCUCAACCAGAAAGUCUGUAAUCAUUUUAAGGGUA [U87C A89G] | 1.73
GUUAACGGUCAUAGGCCAUGGAAACUAGGAGCACCAUUUCGCUGCCAGUGAAGAAAUGAACAAAGAAAAUCUGGGCCAGGCAGGCACCAAAAGAAAUAGUCUUGCGCUCAACCAGAAAGUCUGUAAUCUUUUUAAGGGUA [U87C A129U] | 0.73
GUUAACGGUCAUAGGCCAUGGAAACUAGGAGCACCAUUUCGCUGCCAGUGAAGAAAUGAACAAAGAAAAUCUGGGCCAGGCAGGCACCAAAAGAAAUAGUCUUGCGCUCAACCAGAAAGUCUGUAAUCGUUUUAAGGGUA [U87C A129G] | 1.14
GUUAACGGUCAUAGGCCAUGGAAACUAGGAGCACCAUUUCGCUGCCAGUGAAGAAAUGAACAAAGAAAAUCUGGGCCAGGCAGGCAACAAAAGAAAUAGUCUUGCGCUCAACCAGAAAGUCUGUAAUCAUUUUAAGAGUA [U87A G137A] | 1.96
GUUAACGGUCAUAGGCCAUGGAAACUAGGAGCACCAUUUCGCUGCCAGUGAAGAAAUGAACAAAGAAAAUCUGGGCCAGGCAGGCACCAAAAGAAAUAGUCUUGCGCUCAGCCAGAAAGUCUGUAAUCAUUUUAAGGGUA [U87C A111G] | 0.03
GUUAACGGUCAUAGGCCAUGGAAACUAGGAGCACCAUUUCGCUGCCAGUGAAGAAAUGAACAAAGAAAAUCUGGGCCAGGCAGGCACCAAAAGAAAUAGUCUUGCGCUCACCCAGAAAGUCUGUAAUCAUUUUAAGGGUA [U87C A111C] | 0.02
GUUAACGGUCAUAGGCCAUGGAAACUAGGAGCACCAUUUCGCUGCCAGUGAAGAAAUGAACAAAGAAAAUCUGGGCCAGGCAGGCAACAAAAGAAAUAGUCUUGCGCUCAACCAGAAGGUCUGUAAUCAUUUUAAGGGUA [U87A A118G] | 1.26
GUUAACGGUCAUAGGCCAUGGAAACUAGGAGCACCAUUUCGCUGCCAGUGAAGAAAUGAACAAAGAAAAUCUGGGCCAGGCAGGCACCAAAAGAAAUAGUCUUGCGCUCAACCAGAAUGUCUGUAAUCAUUUUAAGGGUA [U87C A118U] | 0.9
GUUAACGGUCAUAGGCCAUGGAAACUAGGAGCACCAUUUCGCUGCCAGUGAAGAAAUGAACAAAGAAAAUCUGGGCCAGGCAGGCACCAAAAGAAAUAGUCUUGCGCUCAACCAGAAGGUCUGUAAUCAUUUUAAGGGUA [U87C A118G] | 0.75
GUUAACGGUCAUAGGCCAUGGAAACUAGGAGCACCAUUUCGCUGCCAGUGAAGAAAUGAACAAAGAAAAUCUGGGCCAGGCAGGCAACAAAAGAAAUAGUCUUGCGCUCAACCAGAAAGUCUGUAAUCAUUUUGAGGGUA [U87A A134G] | 2.21
GUUAACGGUCAUAGGCCAUGGAAACUAGGAGCACCAUUUCGCUGCCAGUGAAGAAAUGAACAAAGAAAAUCUGGGCCAGGCAGGCACCAAAAGAAAUAGUCUUGCGCUUAACCAGAAAGUCUGUAAUCAUUUUAAGGGUA [U87C C109U] | 0.43
GUUAACGGUCAUAGGCCAUGGAAACUAGGAGCACCAUUUCGCUGCCAGUGAAGAAAUGAACAAAGAAAAUCUGGGCCAGGCAGGCACCAAAAGAAAUAGUAUUGCGCUCAACCAGAAAGUCUGUAAUCAUUUUAAGGGUA [U87C C101A] | 0.14

Variant | self-cleavage
GUUAACGGUCAUAGGCCAUGGAAACUAGGAGCACCAUUUCGCUGCCAGUGAAGAAAUGAACAAAGAAAAUCUGGGCCAGGCAGGCAACAAAAGAAAUAGUCUUGCGCUCAACCAGAAAGUCCGUAAUCAUUUUAAGGGUA [U87A U122C] | 1.28
GUUAACGGUCAUAGGCCAUGGAAACUAGGAGCACCAUUUCGCUGCCAGUGAAGAAAUGAACAAAGAAAAUCUGGGCCAGGCAGGCAACAAAAGAAAUAGUCUUGCGCUCAACCAGAAAGUCAGUAAUCAUUUUAAGGGUA [U87A U122A] | 1.73
GUUAACGGUCAUAGGCCAUGGAAACUAGGAGCACCAUUUCGCUGCCAGUGAAGAAAUGAACAAAGAAAAUCUGGGCCAGGCAGGCAACAAAAGAAAUAGUCUUGCGCUCAACCAGAAAGUCUGUGAUCAUUUUAAGGGUA [U87A A125G] | 0.68
GUUAACGGUCAUAGGCCAUGGAAACUAGGAGCACCAUUUCGCUGCCAGUGAAGAAAUGAACAAAGAAAAUCUGGGCCAGGCAGGCACCAAAAGAAAUAGUCUUGCGCUCAACCAGAAAGUCUGUAGUCAUUUUAAGGGUA [U87C A126G] | 0.82
GUUAACGGUCAUAGGCCAUGGAAACUAGGAGCACCAUUUCGCUGCCAGUGAAGAAAUGAACAAAGAAAAUCUGGGCCAGGCAGGCACCAAAAGAAAUAGUCUUGCGCUCAACCAGAAAGUCUGUAUUCAUUUUAAGGGUA [U87C A126U] | 1.18
GUUAACGGUCAUAGGCCAUGGAAACUAGGAGCACCAUUUCGCUGCCAGUGAAGAAAUGAACAAAGAAAAUCUGGGCCAGGCAGGCACCAAAAGAAUUAGUCUUGCGCUCAACCAGAAAGUCUGUAAUCAUUUUAAGGGUA [U87C A96U] | 1.48
GUUAACGGUCAUAGGCCAUGGAAACUAGGAGCACCAUUUCGCUGCCAGUGAAGAAAUGAACAAAGAAAAUCUGGGCCAGGCAGGCACCAAAAGAAGUAGUCUUGCGCUCAACCAGAAAGUCUGUAAUCAUUUUAAGGGUA [U87C A96G] | 1.81
GUUAACGGUCAUAGGCCAUGGAAACUAGGAGCACCAUUUCGCUGCCAGUGAAGAAAUGAACAAAGAAAAUCUGGGCCAGGCAGGCAACAAAAGAAAUAGCCUUGCGCUCAACCAGAAAGUCUGUAAUCAUUUUAAGGGUA [U87A U100C] | 2.28
GUUAACGGUCAUAGGCCAUGGAAACUAGGAGCACCAUUUCGCUGCCAGUGAAGAAAUGAACAAAGAAAAUCUGGGCCAGGCAGGCAACAAAAGAAAUAGUCUUGCGCUCAACCAGAAAGUCUGUAGUCAUUUUAAGGGUA [U87A A126G] | 1.66
GUUAACGGUCAUAGGCCAUGGAAACUAGGAGCACCAUUUCGCUGCCAGUGAAGAAAUGAACAAAGAAAAUCUGGGCCAGGCAGGCAACAAAAGAAAUAGUCUUGCGCUCAACCAGAAAGUCUGUAAUCCUUUUAAGGGUA [U87A A129C] | 0.8
GUUAACGGUCAUAGGCCAUGGAAACUAGGAGCACCAUUUCGCUGCCAGUGAAGAAAUGAACAAAGAAAAUCUGGGCCAGGCAGGCAACAAAAGAAAUAGUCUUGCGCUCGACCAGAAAGUCUGUAAUCAUUUUAAGGGUA [U87A A110G] | 0.15
GUUAACGGUCAUAGGCCAUGGAAACUAGGAGCACCAUUUCGCUGCCAGUGAAGAAAUGAACAAAGAAAAUCUGGGCCAGGCAGGCACCAAAAGACAUAGUCUUGCGCUCAACCAGAAAGUCUGUAAUCAUUUUAAGGGUA [U87C A95C] | 0.32
GUUAACGGUCAUAGGCCAUGGAAACUAGGAGCACCAUUUCGCUGCCAGUGAAGAAAUGAACAAAGAAAAUCUGGGCCAGGCAGGCACCAAAAGAGAUAGUCUUGCGCUCAACCAGAAAGUCUGUAAUCAUUUUAAGGGUA [U87C A95G] | 1.35
GUUAACGGUCAUAGGCCAUGGAAACUAGGAGCACCAUUUCGCUGCCAGUGAAGAAAUGAACAAAGAAAAUCUGGGCCAGGCAGGCACCAAAAGAAAUAGUCUUGCGCUCAACCAGACAGUCUGUAAUCAUUUUAAGGGUA [U87C A117C] | 0
GUUAACGGUCAUAGGCCAUGGAAACUAGGAGCACCAUUUCGCUGCCAGUGAAGAAAUGAACAAAGAAAAUCUGGGCCAGGCAGGCACCAAAAGAAAUAGUCUUGCGCUCAACCAGAGAGUCUGUAAUCAUUUUAAGGGUA [U87C A117G] | 0.7
GUUAACGGUCAUAGGCCAUGGAAACUAGGAGCACCAUUUCGCUGCCAGUGAAGAAAUGAACAAAGAAAAUCUGGGCCAGGCAGGCACCAAAAGGAAUAGUCUUGCGCUCAACCAGAAAGUCUGUAAUCAUUUUAAGGGUA [U87C A94G] | 1.04
GUUAACGGUCAUAGGCCAUGGAAACUAGGAGCACCAUUUCGCUGCCAGUGAAGAAAUGAACAAAGAAAAUCUGGGCCAGGCAGGCACCAAAAGUAAUAGUCUUGCGCUCAACCAGAAAGUCUGUAAUCAUUUUAAGGGUA [U87C A94U] | 1.37
GUUAACGGUCAUAGGCCAUGGAAACUAGGAGCACCAUUUCGCUGCCAGUGAAGAAAUGAACAAAGAAAAUCUGGGCCAGGCAGGCAACAAAAGAAAUAGUCUUGCGCUCAACCAGGAAGUCUGUAAUCAUUUUAAGGGUA [U87A A116G] | 0.28
GUUAACGGUCAUAGGCCAUGGAAACUAGGAGCACCAUUUCGCUGCCAGUGAAGAAAUGAACAAAGAAAAUCUGGGCCAGGCAGGCACCAGAAGAAAUAGUCUUGCGCUCAACCAGAAAGUCUGUAAUCAUUUUAAGGGUA [U87C A90G] | 0.3
GUUAACGGUCAUAGGCCAUGGAAACUAGGAGCACCAUUUCGCUGCCAGUGAAGAAAUGAACAAAGAAAAUCUGGGCCAGGCAGGCACCACAAGAAAUAGUCUUGCGCUCAACCAGAAAGUCUGUAAUCAUUUUAAGGGUA [U87C A90C] | 0.98

Source: the RNAGym collection of RNA variant scans (doi:10.7554/elife.90254)
